Data from patent US20040019193A1, “Mob-5/hmob-5 as a cancer diagnostic marker” (priority 2002, published 2004).

B1: Mob-5-AP: rat Mob-5-alkaline phosphatase fusion protein, secreted, 90 KD (SEQ ID NO: 8) (protein)
chain: MQTSLRQQILPGLSLILLVLNQVPELQGQEFRFGPCQVTGVVLPELWEAFWTVKNTVKTQDELTSVRLLKPQVLQNVSDAESCYLAHSLLKFYLNTVFKNYHSKIVKFKVLKSFSTLANNFLVIMSKLQPSKDNAMLPISDSARRRFLLYHRTFKQLDIEVALAKAFGEVDILLAWMQNFYQLGSSGIIPVEEENPDFWNREAAEALGAAKKLQPAQTAAKNLIIFLGDGMGVSTVTAARILKGQKKDKLGPEIPLAMDRFPYVALSKTYNVDKHVPDSGATATAYLCGVKGNFQTIGLSAAARFNQCNTTRGNEVISVMNRAKKAGKSVGVVTTTRVQHASPAGTYAHTVNRNWYSDADVPASARQEGCQDIATQLISNMDIDVILGGGRKYMFPMGTPDPEYPDDYSQGGTRLDGKNLVQEWLAKRQGARYVWNRTELMQASLDPSVTHLMGLFEPGDMKYEIHRDSTLDPSLMEMTEAALRLLSRNPRGFFLFVEGGRIDHGHHESRAYRALTETIMFDDAIERAGQLTSEEDTLSLVTADHSHVFSFGGYPLRGSSIFGLAPGKARDRKAYTVLLYGNGPGYVLKDGARPDVTESESGSPEYRQQSAVPLDEETHAGEDVAVFARGPQAHLVHGVQEQTFIAHVMAFAACLEPYTACDLAPPAGTTDAAHPG
B2: Mob-5: rat secreted protein of 183 amino acids, 23 KD, encoded by oncogenic ras target gene mob-5 (protein)
chain: PELQGQEFRFGPCQVTGVVLPELWEAFWTVKNTVKTQDELTSVRLLKPQVLQNVSDAESCYLAHSLLKFYLNTVFKNYHSKIVKFKVLKSFSTLANNFLVIMSKLQPSKDNAMLPISDSARRRFLLYHRTFKQLDIEVALAKAFGEVDILLAWMQNFYQL
B3: hMob-5-AP: human Mob-5 fused at the C-terminus with alkaline phosphatase, 90 KD (SEQ ID NO: 10) (protein)
chain: MNFQQRLQSLWTLASRPFCPPLLATASQMQMVVLPCLGFTLLLWSQVSGAQGQEFHFGPCQVKGVVPQKLWEAFWAVKDTMQAQDNITSARLLQQEVLQNVSDAESCYLVHTLLEFYLKTVFKNYHNRTVEVRTLKSFSTLANNFVLIVSQLQPSQENEMFSIRDSAHRRFLLFRRAFKQLDVEAALTKALGEVDILLTWMQKFYKLGSSGIIPVEEENPDFWNREAAEALGAAKKLQPAQTAAKNLIIFLGDGMGVSTVTAARILKGQKKDKLGPEIPLAMDRFPYVALSKTYNVDKHVPDSGATATAYLCGVKGNFQTIGLSAAARFNQCNTTRGNEVISVMNRAKKAGKSVGVVTTTRVQHASPAGTYAHTVNRNWYSDADVPASARQEGCQDIATQLISNMDIDVILGGGRKYMFPMGTPDPEYPDDYSQGGTRLDGKNLVQEWLAKRQGARYVWNRTELMQASLDPSVTHLMGLFEPGDMKYEIHRDSTLDPSLMEMTEAALRLLSRNPRGFFLFVEGGRIDHGHHESRAYRALTETIMFDDAIERAGQLTSEEDTLSLVTADHSHVFSFGGYPLRGSSIFGLAPGKARDRKAYTVLLYGNGPGYVLKDGARPDVTESESGSPEYRQQSAVPLDEETHAGEDVAVFARGPQAHLVHGVQEQTFIAHVMAFAACLEPYTACDLAPPAGTTDAAHPG

Tests used:
[1] = tested on: putative Mob-5 receptor on the cell surface of h-ras transformed Rat-1 cells; assay: Mob-5-AP receptor binding assay on Rat-1 cells before and after h-ras transformation; conditions: normal versus h-ras transformed Rat-1 cells, media at 0.7 unit/ml
Protocol: Both the normal and oncogenic h-ras transformed Rat-1 cells were analyzed for the ability to bind Mob-5-AP versus AP alone. The cell surface bound AP activity was measured to reveal a Mob-5 mediated-binding activity present only on the cell surface of the h-ras transformed cells. The result is representative of at least 5 independent experiments.
Identification of a putative receptor(s) of Mob-5 on the cell surface of h-ras transformed cells Another possible mechanism for Mob-5 function is that Mob-5 acts as an autocrine growth factor downstream of activated Ras. Ras transformed RIE cells can be used in a receptor binding assay. APtag technology (Flanagan and leder, 1990) was employed to create a Mob-5-alkaline phosphatase (AP) fusion protein, which can be used as an affinity agent for the receptor analysis. This strategy has been successfully used to identify and clone a number of important cell surface receptors, including those of leptin (Tartaglia et al., 1995) and semaphorin III (He and Tessier-Lavigne, 1997). Like Mob-5 itself, Mob-5-AP was secreted at high levels in 293T cells stably transfected with the recombinant plasmid. The secreted 90 KD Mob-5-AP can be readily detected from the culture media by either the alkaline phosphatase assay or direct Western blot analysis using anti-Mob-5 antibody (FIG. 4A). […]

[2] = tested on: putative Mob-5 receptor on the cell surface of h-ras transformed RIE cells; assay: AP fusion protein receptor binding assay on RIE cells before and after h-ras transformation; set-up: species or system rat; conditions: normal versus h-ras transformed RIE cells, media at 0.7 unit/ml
Protocol: (E) Mob-5-AP, but not hMob-5-AP, binds specifically to the cell surface of oncogenic h-ras transformed RIE cells. Both the normal and oncogenic h-ras transformed RIE cells were analyzed for the ability to bind Mob-5-AP versus AP alone. The same experiment was carried out with hMob-5-AP and AP alone. The cell surface bound AP activity was measured to reveal a species specific Mob-5 binding activity present only on the cell surface of the h-ras transformed RIE cells. The result is representative of at least 3 independent experiments.
As in Rat-1 cells, the putative Mob-5 receptor was also found to be differentially expressed between the normal and h-ras transformed RIE cells using Mob-5-AP fusion protein as a ligand (FIG. 4E, left panel). To determine whether hMob-5-AP could also differentially bind to the cell surface of h-ras transformed RIE cells, the receptor binding assay was conducted using hMob-5-AP in place of Mob-5-AP.
mob-5 expression is activated by both oncogenic h-ras and k-ras in intestinal epithelial cells Cancer arises from the epithelial cells rather than fibroblasts and K-ras mutations have been tightly linked with cancers of gastric intestinal origins (Kiaris and Spandidos, 1995). […] After the final 5 min extension at 72 ° C., the RT-PCR products were analyzed on a 1.5 % agarose gel. […]

[3] = tested on: Rat-1 cells; assay: Over expression of Mob-5 in Rat-1 cells, morphological transformation; type: cell-based; conditions: retroviral over expression of Mob-5 alone in Rat-1 cells
Source text: Over expression of the full length mob-5 cDNA with retroviral vector in a variety of rodent fibroblasts including Rat-1 cells led to high level secretion of Mob-5 protein with a predicted MW of 23 KD into the culture media, which could be readily detected by western blot using polyclonal antibody directed against the recombinant Mob-5 (FIG. 4A).
Construction of mob-5 mammalian expression construct A 680-bp BspHI-Bgl II restriction fragment containing the entire coding region of mob-5 was generated by PCR using cloned mob-5 cDNA as a template. The targeting construct was subsequently inserted between the Nco I and Bam I sites of retroviral vector pMFG-S (Danos and Mulligan, 1988; Dranoff, G. et al. 1993) and sequenced to ensure the sequence accuracy.
Transfection and Retroviral Infection Recombinant plasmids were transfected into target cells by the standard calcium phosphate precipitation method. For retroviral packaging, pMFG-S-Mob-5 was cotransfected with pCMV-Neo vector at a rate of 10:1 (10 μg of pCMV-S-rMob-5: 1 μg of pCMV-Neo) into the CRIP packaging cells to produce G418 (1 mg/ml) resistant stable cell lines. Retroviral infection was carried out essentially as described previously (Zhang et al., 1998). […]

Row | Molecule | cell surface binding (bound AP activity) versus AP alone [1] | cell surface binding (bound AP activity) versus AP alone [2] | morphological transformation on over expression [3]
1 | B1 | preferentially bound to the cell surface of the h-ras transformed Rat-1 cells, but not of the parental control | binds specifically only to the ras transformed RIE cells | 
2 | B2 |  |  | did not lead to any obvious morphological transformation
3 | B3 |  | did not exhibit any preferential cell surface binding | 
